{
  "source": "patent US20150010566A1",
  "assay_in_all_cases": "cell-based or functional assay",
  "key": {"[1]": {"target": "HA of Influenza H3N2 (A/Swine/St. Oedenrode/1996), on infected MDCK cells or on virus (Influenza A virus H3N2 A/Swine/St. Oedenrode/1996 (host Swine))"}, "[2]": {"target": "HA of H5N1 A/turkey/Turkey/05 virus (Influenza A virus H5N1 A/turkey/Turkey/05)"}, "[3]": {"target": "HA of Influenza H1N1 (A/Neth/602/2009), on infected MDCK cells or on virus (Influenza A virus H1N1 A/Neth/602/2009 (host Human))"}, "[4]": {"target": "HA of low pathogenic H7N1 (A/Ch/Italy/1067/1999), on infected MDCK cells or on virus (Influenza A virus H7N1 A/Ch/Italy/1067/1999 (host Chicken))"}, "[5]": {"target": "HA of high pathogenic H7N7 (A/Ch/Neth/621557/03), on infected MDCK cells or on virus (Influenza A virus H7N7 A/Ch/Neth/621557/03 (host Chicken))"}},
  "data": [
    {"substance": "CR8020 (antibody)", "values": [
      {"measurement": "IC50, in vitro virus neutralization on MDCK cells", "setting": "[1]", "value": "> 15", "unit": "µg/mL"},
      {"measurement": "IC50, in vitro virus neutralization on MDCK cells", "setting": "[2]", "value": "> 15", "unit": "µg/mL"},
      {"measurement": "IC50, in vitro virus neutralization on MDCK cells", "setting": "[3]", "value": "> 15", "unit": "µg/mL"},
      {"measurement": "IC50, in vitro virus neutralization on MDCK cells", "setting": "[4]", "value": "> 15", "unit": "µg/mL"},
      {"measurement": "IC50, in vitro virus neutralization on MDCK cells", "setting": "[5]", "value": 0.6, "unit": "µg/mL"}
    ]}
  ]
}
